{"source": "paper doi:10.1101/2020.01.13.905216", "about": "(bioRxiv, 2020)", "proteins": {"B1": {"name": "Thermophilic Factor 55 β subunit (TF55β) chaperonin complex from Sulfolobus solfataricus (natural protein, S. solfataricus, UniProt Q9V2T8 1-554, looked up)", "chain": "MATATVATTPEGIPVIILKEGSSRTYGKEALRANIAAVKAIEEALKSTYGPRGMDKMLVDSLGDITITNDGATILDKMDLQHPTGKLLVQIAKGQDEETADGTKTAVILAGELAKKAEDLLYKEIHPTIIVSGYKKAEEIALKTIQEIAQPVTINDTDVLRKVALTSLGSKAVAGAREYLADLVVKAVAQVAELRGDKWYVDLDNVQIVKKHGGSVNDTQLVYGIVVDKEVVHPGMPKRIENAKIALLDASLEVEKPELDAEIRINDPTQMHKFLEEEENILKEKVDKIAATGANVVICQKGIDEVAQHYLAKKGILAVRRAKKSDLEKLARATGGRVISNIDELTSQDLGYAALVEERKVGEDKMVFVEGAKNPKSVSILIRGGLERVVDETERALRDALGTVADVIRDGRAVAGGGAVEIEIAKRLRKYAPQVGGKEQLAIEAYANAIEGLIMILAENAGLDPIDKLMQLRSLHENETNKWYGLNLFTGNPEDMWKLGVIEPALVKMNAVKAATEAVTLVLRIDDIVAAGKKSGSEPSGKKEKDKEEKSSED"}}, "molecular_target": "the molecule itself", "experiment": "cryo-EM structure", "data": [{"protein": "B1", "values": [{"measurement": "stoichiometry N", "value": 18}]}]}
